Like-named read-outs stand apart in the source and are kept apart here.
Legend:
[1] = cited from earlier work
[2] = system: FRC (fetal rat calvarial) cells; assay: Alkaline phosphatase (AP) activity assay in FRC cells; type: cell-based
Method: A preferred assay for testing potential MPSFs with OP-1 for osteogenic activity is the alkaline phosphatase (AP) enzymatic assay. AP is an osteoblast differentiation marker in primary osteoblastic FRC. (fetal rat calvarial) cells. The OP-1-stimulated AP activity is the result of increased steady-state AP mRNA levels as measured by Northern analysis. The procedure is generally as follows.
Primary osteoblast cell cultures were prepared from fetal rat calvaria using published procedures (M. A. Aronow et al., J. Cell Physiol., 143, pp. 213–221 (1990); T. K. McCarthy et al., J. Bone Miner. Res., 3, pp. 401–8 (1988)). Briefly, cells were harvested by sequential collagenase digestions of the calvarium and cells from digestions III to V were pooled. Fetal rat calvaria (FRC) cells were plated in complete medium (MEM, alpha; GIBCO/BRL, Grand Island, N.Y.) containing 10% fetal bovine serum, vitamin C (100 μg/ml), and antibiotics (100 U/ml penicillin, and […]). Cultures were incubated at 37° C. with 95% air/5% CO2 for several days to reach confluence. Cells were then subcultured for experimentations.
FRC cells were subcultured in 48-well plates (COSTAR, Cambridge, Mass.) in complete MEM medium with 10% fetal bovine serum until confluent in about 4 days. Confluent cells were rinsed with Hank's balanced salt solution (HBSS) and treated with serum-free α-MEM medium (with 0.1% BSA, 100 U/ml penicillin, and […]) containing the appropriate solvent vehicle (50% acetonitrile/0.1% trifluoroacetic acid for OP-1 treatment or 0.1N acetic acid for IGFI treatment) or recombinant human OP-1, or IGFI at the concentrations indicated. Solvent vehicle concentration in the culture medium never exceeded 0.1%. At the end of treatment, cells were lysed and total cellular alkaline phosphatase activity was measured (typically after 48 hours of treatment).
Total cellular alkaline phosphatase activity was determined using a commercial assay kit (Sigma, St. Louis, Mo.). Cell lysates were prepared by aspirating the medium from the 48-well plate, rinsing the cells with ice-cold PBS, and lysing the cells with 0.05% Triton X-100 and sonication for 60 sec. Alkaline phosphatase activity in the lysates was measured in 2-amino-2-methyl-1-propanol buffer (pH 10.3) with p-nitrophenyl phosphate as substrate at 37° C. Reactions were performed in 96-well plates for 1–2 h. Following color development, reactions were terminated with 0.5N NaOH. Absorbance of the reaction was measured at 405 nm using a Hewlett Packard Genenchem automatic plate reader. Total protein level in the lysates was measured according to Bradford (M. Bradford, Anal. Biochem., 72, pp. 248–54 (1976)) using bovine serum albumin as a standard. Alkaline phosphatase activity was expressed as nmol p-nitrophenol liberated per microgram of total cellular protein. […]
At least four experimental groups were tested: control cells treated with no OP-1 or MPSF; group I cells treated with increasing concentrations of MPSF alone; […]; and group III cells, […] concentrations of the MPSF.

[3] = Osteogenic activity of refolded E. coli-expressed constructs incorporated in a matrix; type: in vivo; settings: refolded constructs from SDS gel slices incorporated in a matrix; histological examination
Source text: Samples of the various purified constructs and various mixtures of pairs of the constructs refolded together were applied to SDS polyacrylamide gels, separated by electrophoresis, sliced, incorporated in a matrix as disclosed below, and tested for osteogenic activity.

[4] = 200 nM PTH + 200 ng/ml OP-1, 48 hours (FIG. 9)

B1: OP-1: osteogenic protein OP-1 (BMP-7), morphogenic protein of the BMP family; recombinant human OP-1 used in FRC assays (protein, UniProt P18075 293-431, looked up)
Bone morphogenetic protein 7: STGSKQRSQNRSKTPKNQEALRMANVAENSSSDQRQACKKHELYVSFRDLGWQDWIIAPEGYAAYYCEGECAFPLNSYMNATNHAIVQTLVHFINPETVPKPCCAPTQLNAISVLYFDDSSNVILKKYRNMVVRACGCH
- Osteogenic activity ([1]; deglycosylated protein, about 27 kD): has osteogenic activity
- Osteogenic activity ([1]; native 30–35 kD protein in the reduced state): no detectable osteogenic activity
- Stimulation of AP activity above vehicle-treated control culture ([2]; OP-1 500 ng/ml, 48 hours (FIG. 2)): 1.6 fold

B2: COP5: synthetic consensus osteogenic protein, Seq. ID No. 2 (protein)
chain: LYVDFSDVGWDDWIVAPPGYQAFYCHGECPFPLADHFNSTNHAVVQTLVNSVNSKIPKACCVPTELSAISMLYLDENEKVVLKYNQEMVVEGCGCR
- Osteogenic activity [3]: induce osteogenesis

B3: COP7: synthetic consensus osteogenic protein, Seq. ID No. 3 (protein)
chain: LYVDFSDVGWNDWIVAPPGYHAFYCHGECPFPLADHLNSTNHAVVQTLVNSVNSKIPKACCVPTELSAISMLYLDENEKVVLKYNQEMVVEGCGCR
- Osteogenic activity [3]: induce osteogenesis

B4: PTH: parathyroid hormone, purchased from Sigma (protein, UniProt P01270 32-115, looked up)
Parathyroid hormone: SVSEIQLMHNLGKHLNSMERVEWLRKKLQDVHNFVALGAPLAPRDAGSQRPRKKEDNVLVESHEKSLGEADKADVNVLTKAKSQ
modifications: Parathyroid hormone
notes: parathyroid hormone, purchased from Sigma
- Level of AP activity relative to cells treated with OP-1 alone [2, 4]: about two-fold
- Level of AP activity relative to control cells [2, 4]: about five-fold
- MPSF function in concert with OP-1 (figure title) ([2]; AP activity in FRC cells, OP-1 200 ng/ml (FIGS. 5–10)): is a MPSF in concert with OP-1
- Effect on OP-1-induced stimulation of AP activity ([2]; PTH 25 and 100 nM + 200 ng/ml OP-1, 48 hours (FIG. 9)): no effect
- Stimulation of AP activity by PTH alone ([2]; PTH 25–200 nM alone, 48 hours (FIG. 9)): did not stimulate AP activity
- Effect of PTH on AP activity induced by the OP-1/IGF-I combination ([2]; PTH at least about 50 nM + 200 ng/ml OP-1 + 25 ng/ml IGF-1): significantly increased

From patent publication US7026292B1, “Compositions and therapeutic methods using morphogenic proteins and stimulatory factors” (Stryker Corporation, priority 1995, dated 2006)
